Tests used:
2F5-specific peptide = assay: ELISA on peptide MPER (659-671), antibody titrated
[1] = molecular target: HIV-1 Env of isolate COT6 (wild-type) (HIV-1); assay: cell-based or functional assay
[2] = molecular target: HIV-1 Env of isolate COT6, mutant D674E (HIV-1); assay: cell-based or functional assay
[3] = molecular target: HIV-1 Env of isolate COT6, mutant D674T (HIV-1); assay: cell-based or functional assay

EC50 (read off the curve) (2F5-specific peptide) | Substance | Fold increase in IC50 (wild-type COT6, the reference) [1] | Fold increase in IC50 relative to wild-type COT6 [2] | Fold increase in IC50 relative to wild-type COT6 [3]
6 ng/mL | 2F5 (antibody) |  |  | 
 | 10E8 (antibody) | 1 fold | 17.5 fold | 36 fold

Reference: US20240124560A1
